From the supplement of paper PMC12042874
± gives the uncertainty stated by the source.

Test: amyloid nucleation score (Sup35N fusion, yeast selection) (log enrichment); library NNK2; higher = more nucleation; inactive = no reads after selection
Outline: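 Three technical output replicates were used for random libraries. Psi-negative yeast expressing peptides of 20 random codons fused to Sup35N were induced with 100 μM copper sulfate for 24 hours and grown 7 days at 30°C on medium lacking adenine and uracil, and input and output plasmid inserts were Illumina-sequenced, excluding sequences with under 100 input reads. The nucleation score is the DiMSum log enrichment of output over input reads, centred on the mode score of non-aggregating sequences.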

| Substance | amyloid nucleation score |
| --- | --- |
| MVHLRGIDVMSILDSYCESG | 0.544 ± 0.52 |
| SILCLLNRLTFREYLMVFID | -0.583 ± 0.55 |
| TGFQLVNWSNIGLWNNLYGR | 5.49 ± 0.065 |
| SCHVC | 5.854 ± 0.058 |
| LKTGSF | inactive |
| FCAYVAWLSSWNIQPAKGRG | 1.1 ± 0.35 |
| FDAQNSWSWHRSWQNVFRKG | 1.54 ± 0.22 |
| LTRQYNNRNPMSLRAIGYAF | inactive |
| RYNFYRLNLSRAVASDETCV | -0.854 ± 0.34 |
| NIFEYPGYRRYVCCVGWV | 4.551 ± 0.044 |
| ARSLTKSLARYRGRMQMTGP | 0.929 ± 0.3 |
| SHFFAQPGNGMRWCVRIKVC | 0.744 ± 0.8 |
| CYYMCAYRGVAK | 0.637 ± 0.36 |
| PALCVNAVTKIDRNNCYDNG | 3.92 ± 0.064 |
| SSYESLCKIYLNFCQTD | 6.761 ± 0.059 |
| MEIRTQLFVLVCSKNILGDS | -0.849 ± 1.1 |
| GYNGMGRCINWVRKYRWLLW | 5.355 ± 0.033 |
| PDGTVYDGYSFCSVS | -0.615 ± 0.63 |
| YYSFSGRATWGRNKSFMWVA | 0.089 ± 1.1 |
| TKRHE | 0.987 ± 0.58 |
| FSVTMDGYIRI | 0.06 ± 0.44 |
| RTSFRNVMTIMTSPHVVTFI | -0.149 ± 0.4 |
| SKDRCEVQLGKFTCLFMFDY | -1.47 ± 0.55 |
| KPAERLFKCRSTE | 0.014 ± 0.49 |
| PKWIPYSRRWPWAYIF | -1.2 ± 0.48 |

| Substance | amyloid nucleation score |
| --- | --- |
| NYITSSVCFCCSDPMYTPSR | 8.552 ± 0.031 |
| WSPLSLVTIELLVQSVIDPF | -0.351 ± 0.48 |
| VTDCMSVRITLLMCSHGFKH | 7.302 ± 0.063 |
| DNDYIYRYPWP | -0.288 ± 1.1 |
| CSVSGNLQISFYGNMPINSF | -0.924 ± 0.78 |
| LWFDLSSTLPQM | 0.396 ± 0.62 |
| LTVYVFSDFSRATVGPSRWL | 0.238 ± 0.48 |
| MSQFGHVCSRAYFLRDDQAN | inactive |
| HVVLTLGLRISQHRLLRYKK | 5.64 ± 0.095 |
| FIYLIMFCKMVQWTIAFFKA | -0.658 ± 0.64 |
| YGDCLRLTDSYVSIFTRVPT | 0.159 ± 0.3 |
| PCPSISGLFASAYPITRLSL | -0.347 ± 0.24 |
| PWHTSFALERKDMGHK | -0.094 ± 0.36 |
| LLLASAMWYGKLIRMRLLG | 0.659 ± 0.48 |
| KWVGWMWGYEGSLWSSNLWR | 0.242 ± 0.77 |
| AIPSRPSFLKPQPRILFTIP | -0.702 ± 0.39 |
| YSGRSAWLMLCGRPVRR | 1.11 ± 0.33 |
| SEVGEGSPIDMTLARSGSVF | 0.913 ± 0.81 |
| VWYFIDFGPRKISVITWRYS | -0.642 ± 0.78 |
| VILYGFNKVMECSTYVVV | -0.804 ± 1.1 |
| TYSGEIKL | inactive |
| NNRHLSPVVRSY | inactive |
| MDMPVWG | 0.285 ± 1 |
| DVVKSVPQTPL | 0.851 ± 0.28 |
| LLMLVSFLIDDEAFSVFDLL | 0.672 ± 0.39 |

| Substance | amyloid nucleation score |
| --- | --- |
| RELCVFASCAFVGLLVESWK | 6.16 ± 0.078 |
| NAERSESLYNYKMAGPYGEG | -0.661 ± 1.1 |
| RPRILYLLLFLYNHFLTSYK | -1.08 ± 1 |
| ILVNLVVVIKSSYRLSKCRF | -0.67 ± 1.1 |
| AYAHH | 4.08 ± 0.072 |
| GPDSLLGFMSAHNWSAKVYP | 0.209 ± 0.44 |
| KCYLVLRG | 3.08 ± 0.17 |
| YYDFVVNGGDGLSIEYNSRG | 0.405 ± 0.74 |
| SLTASCI | -0.471 ± 0.76 |
| SFSRSSAYVVHVLGYLEFRT | -0.004 ± 0.65 |
| KLIVMGTNPGRVGNGWKRKS | 0.53 ± 0.3 |
| CHNNFVYRGNAPRRHLEQGV | 0.062 ± 0.77 |
| FVRNKLMADFFWLGFYN | -1.79 ± 0.63 |
| HDGICSNSGVVSINKNGNYD | 1.27 ± 0.29 |
| GSYKSGSSSA | 2.57 ± 0.1 |
| EGDMLILEF | -0.474 ± 1 |
| FVGTCSHYRGCSVCFITDLL | 6.135 ± 0.057 |
| TRYMFMVTKLPGPGGCSVNE | inactive |
| PTRVKIFFQRMCGVVAVGWS | 1.42 ± 0.39 |
| NHKAIYLRPSSTNPEILSRA | 1.15 ± 0.47 |
| SRTWEFSFR | 2.5 ± 0.12 |
| LWDLRSEYKFYINMDHFMTV | -1.4 ± 0.75 |
| RRGNWKMSFFRMLTVNP | -0.488 ± 0.55 |
| DFVDGVPL | 0.415 ± 0.8 |
| RHKMWVFRT | inactive |

| Substance | amyloid nucleation score |
| --- | --- |
| LLHYGGSFLAAKFRRMGFTM | -0.262 ± 0.56 |
| MRYEFVLFLRFRGSDTKGRD | -0.124 ± 0.33 |
| SLRMGFTKSVVARGAWRNWV | 4.1 ± 0.057 |
| DEWQRGRTLSDTF | -0.295 ± 0.76 |
| SAFSFTSLSKYGLFSFCVVR | -0.274 ± 0.63 |
| KFCCT | 3.47 ± 0.1 |
| GLRYIS | -0.102 ± 0.5 |
| WGADSYYMCTKLLGSDCGSN | 0.453 ± 0.66 |
| FLFMLLSPVSMARLDKVMMG | 0.313 ± 0.65 |
| ETHVRMWAHFWQTTLRCHKS | 1.72 ± 0.16 |
| FSYMWAHTGSFPRRQVIITI | -0.596 ± 0.55 |
| CNRSCLLGDNPCTVWRITLF | -0.644 ± 0.48 |
| TLFLRMVSLHFKSVVLWNWF | 0.213 ± 0.8 |
| AGSSSVNQITCLH | -0.22 ± 1 |
| VSFATRRSSNNILTGW | -0.557 ± 1.1 |
| QILSRGFAPWT | -1.54 ± 0.78 |
| HLYCRALILLVVLPGYTQLL | -1.07 ± 0.78 |
| NKDRGGRYSICRNYANPFVA | 0.034 ± 0.29 |
| MSYVLMVFASPIMYVTHPIA | 1.89 ± 0.2 |
| YRSWIGYCSNDVSQTLCTVM | 9.164 ± 0.024 |
| YFYPFLCLTKNQLVLSNRRT | 4.47 ± 0.073 |
| YSFFIIVSALIGRWAS | -0.894 ± 1.1 |
| VRFKYIYHTGLDDVAVNQY | -0.487 ± 0.55 |
| WNSIYGLAEMQVCWWFGWGC | -0.628 ± 0.41 |
| GWFMNCTLVVKVTDTEIGLY | inactive |

| Substance | amyloid nucleation score |
| --- | --- |
| HVTRVSVLQVLELHSTMTGV | 4.09 ± 0.09 |
| FSFEWMFWGWTCNQGTDVVS | -0.319 ± 0.54 |
| CKCYTAQCWVSRNLMKRPLT | 0.579 ± 0.49 |
| SRVDNVSSAPAISAMGVWCG | 1.14 ± 0.38 |
| KKFSSMYRSEFGNSI | -0.65 ± 0.41 |
| SVGGETITRWKCIWMTRRTE | 1.77 ± 0.16 |
| FVGVYMVLRSLGDRVSYVMF | inactive |
| SVNWSFRSMNIFH | 3.45 ± 0.055 |
| KSRWRQRILVPIPWWARHVE | 0.239 ± 0.29 |
| CIKLRR | inactive |
| FSFIGFLNRNKSAALCKMDI | -1.16 ± 0.76 |
| SSQCRDVGEAGNHWCLSGSG | 2.8 ± 0.14 |
| NQLDTNSIMLVFLSNMMLGV | 3.81 ± 0.056 |
| ENCHFLGWANNGVLKCSFT | -0.153 ± 0.63 |
| FSGFYLWSVDFVMLLGAWAH | inactive |
| DVLVSILITPRCHHA | inactive |
| YPPIISRLQY | inactive |
| HYLEGYRFDLEMIVCICQKG | 5.369 ± 0.049 |
| TPTWESNQVL | 0.502 ± 0.65 |
| WRLSLGYPVSALQMRMPGTL | 2.1 ± 0.22 |
| RIGSGTGRPWN | -1.02 ± 0.39 |
| DSLYWSRCSSFRTKQEVSDM | 0.907 ± 0.3 |
| VFFNLDSWSSKVCDSKLMVM | -0.373 ± 0.54 |
| CFVQLCACRYTIRNWGFRWL | inactive |
| DTMKFFSSLSMNGENVGLGY | inactive |

| Substance | amyloid nucleation score |
| --- | --- |
| LKDETN | inactive |
| HFPHGHDFVFTVCYDTHSCL | 0.729 ± 0.15 |
| AMPSNMLGTSGSYDAC | 0.404 ± 0.66 |
| GTSCSMGPAWGLSCYGTFVD | -0.288 ± 0.55 |
| RYIIL | 0.728 ± 0.62 |
| MLLVVYGQVRTISLLRRRSS | -0.243 ± 0.74 |
| LGLPNNGL | -0.187 ± 0.55 |
| DWWSDDSRLGNLLRFSKRSF | -0.636 ± 0.76 |
| VNFNQSRCVDYVGILVIGG | -0.248 ± 0.28 |
| TVMNVDWFKDYLLTNFVCSD | 0.063 ± 0.36 |
| WRDGSYLFPDVPERPSRNSG | inactive |
| CTSDVGGSQERVGSIQANSN | 2.48 ± 0.2 |
| CTLRSLEAVLRVLIGYALRH | 0.223 ± 0.3 |
| VAYLTFLWNQYAVRARKRLP | -0.085 ± 0.35 |
| LLGTFYTS | -1 ± 1.1 |
| MYSLR | inactive |
| AWTAETFKVLCVVMSY | 0.382 ± 0.24 |
| TPNNYLYTSFVAY | inactive |
| GLSGMEGKLS | -0.398 ± 0.63 |
| VRSGTLFARTKWEESSCHLF | 0.641 ± 0.4 |
| GSYLA | 0.697 ± 0.47 |
| EDLWWVQLSNLKDSVDEYCR | 0.007 ± 0.21 |
| ELFQIAVTRTKFLLVQSSYS | 1.27 ± 0.18 |
| IRPINGSWGVSTNCKVYDYV | -0.011 ± 1.1 |
| RRSWCLGFSRDLMSELKGIS | 1.4 ± 0.41 |

| Substance | amyloid nucleation score |
| --- | --- |
| IMCLKFLNPTHFGCVGVCML | -1.22 ± 0.41 |
| FCSSIVMVNSQCFVKSFSTK | 6.311 ± 0.028 |
| VGDVKVWTVRSSTNATEKFL | 0.551 ± 0.27 |
| RITIAQHTDSKGDA | -0.01 ± 0.61 |
| NRLERMLLTDTDVSEKGSLG | -0.204 ± 0.54 |
| DFRCADCLKINFSIVQSK | 7.257 ± 0.05 |
| ASASSVIAMRNRMGGLNRFC | -0.302 ± 0.24 |
| WCGYCLTFLFPAQKQEAVLR | 0.218 ± 0.35 |
| LGYIWLALRIVNCLDNGVPY | -1 ± 0.44 |
| WFRRQSLGWVRANGPVMRIS | 0.035 ± 0.34 |
| LRPLIIPGSKRHCNTVL | -0.005 ± 0.79 |
| DFSWNGGNFTFVFSKCGL | 2 ± 0.22 |
| LAGLYGNFCISRCSVANQMV | 2.08 ± 0.095 |
| TVNCSTCM | -0.562 ± 0.19 |
| TLCWLYLWVYRCKDYEELTC | -0.167 ± 0.63 |
| QSRSMNRHNWHTFMLWAWER | -0.695 ± 0.61 |
| MLVSGSSLEW | 0.264 ± 0.42 |
| PACTLESYRSNNFDGLFMTT | -0.609 ± 0.76 |
| LGFDFSNVKRTGRVTFFDCM | -0.1 ± 0.35 |
